Source: IntAct's records for PubMed 16328881

B1: Minichromosome maintenance protein 10 (Saccharomyces cerevisiae), P32354 (parent)
chain: MNDPREILAVDPYNNITSDEEDEQAIARELEFMERKRQALVERLKRKQEFKKPQDPNFEAIEVPQSPTKNRVKVGSHNATQQGTKFEGSNINEVRLSQLQQQPKPPASTTTYFMEKFQNAKKNEDKQIAKFESMMNARVHTFSTDEKKYVPIITNELESFSNLWVKKRYIPEDDLKRALHEIKILRLGKLFAKIRPPKFQEPEYANWATVGLISHKSDIKFTSSEKPVKFFMFTITDFQHTLDVYIFGKKGVERYYNLRLGDVIAILNPEVLPWRPSGRGNFIKSFNLRISHDFKCILEIGSSRDLGWCPIVNKKTHKKCGSPINISLHKCCDYHREVQFRGTSAKRIELNGGYALGAPTKVDSQPSLYKAKGENGFNIIKGTRKRLSEEEERLKKSSHNFTNSNSAKAFFDEKFQNPDMLANLDNKRRKIIETKKSTALSRELGKIMRRRESSGLEDKSVGERQKMKRTTESALQTGLIQRLGFDPTHGKISQVLKSSVSGSEPKNNLLGKKKTVINDLLHYKKEKVILAPSKNEWFKKRSHREEVWQKHFGSKETKETSDGSASDLEII

Variants of: B1
Details: with sir2_yeast SIR2, P06700
Sequence of sir2_yeast SIR2, P06700 (P06700 whole entry): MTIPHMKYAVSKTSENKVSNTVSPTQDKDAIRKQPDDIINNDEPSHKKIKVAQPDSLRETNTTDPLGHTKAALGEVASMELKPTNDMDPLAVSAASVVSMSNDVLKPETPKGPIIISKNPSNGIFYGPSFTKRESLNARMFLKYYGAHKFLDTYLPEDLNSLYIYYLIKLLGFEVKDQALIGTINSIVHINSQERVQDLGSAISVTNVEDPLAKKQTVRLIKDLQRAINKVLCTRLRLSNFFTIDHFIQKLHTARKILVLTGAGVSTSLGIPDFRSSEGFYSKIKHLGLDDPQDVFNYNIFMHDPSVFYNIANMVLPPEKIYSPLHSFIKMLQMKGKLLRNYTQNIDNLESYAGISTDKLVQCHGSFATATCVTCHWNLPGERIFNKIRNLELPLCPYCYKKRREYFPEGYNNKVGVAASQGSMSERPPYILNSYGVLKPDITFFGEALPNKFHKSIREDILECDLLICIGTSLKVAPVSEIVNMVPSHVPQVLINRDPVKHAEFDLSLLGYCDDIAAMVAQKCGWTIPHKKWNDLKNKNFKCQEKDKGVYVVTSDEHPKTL

Row | Variant | effect of a mutation on the interaction
1 | MNDPREILAVDPYNNITSDEEDEQAIARELEFMERKRQALVERLKRKQEFKKPQDPNFEAIEVPQSPTKNRVKVGSHNATQQGTKFEGSNINEVRLSQLQQQPKPPASTTTYFMEKFQNAKKNEDKQIAKFESMMNARVHTFSTDEKKYVPIITNELESFSNLWVKKRYIPEDDLKRALHEIKILRLGKLFAKIRPPKFQEPEYANWATVGLISHKSDIKFTSSEKPVKFFMFTITDFQHTLDVYIFGKKGVERYYNLRLGDVIAILNLEVLPWRPSGRGNFIKSFNLRISHDFKCILEIGSSRDLGWCPIVNKKTHKKCGSPINISLHKCCDYHREVQFRGTSAKRIELNGGYALGAPTKVDSQPSLYKAKGENGFNIIKGTRKRLSEEEERLKKSSHNFTNSNSAKAFFDEKFQNPDMLANLDNKRRKIIETKKSTALSRELGKIMRRRESSGLEDKSVGERQKMKRTTESALQTGLIQRLGFDPTHGKISQVLKSSVSGSEPKNNLLGKKKTVINDLLHYKKEKVILAPSKNEWFKKRSHREEVWQKHFGSKETKETSDGSASDLEII [P269L] | disrupting interaction strength

Variants of: B1
Details: with sir3_yeast SIR3, P06701
Sequence of sir3_yeast SIR3, P06701 (P06701 whole entry): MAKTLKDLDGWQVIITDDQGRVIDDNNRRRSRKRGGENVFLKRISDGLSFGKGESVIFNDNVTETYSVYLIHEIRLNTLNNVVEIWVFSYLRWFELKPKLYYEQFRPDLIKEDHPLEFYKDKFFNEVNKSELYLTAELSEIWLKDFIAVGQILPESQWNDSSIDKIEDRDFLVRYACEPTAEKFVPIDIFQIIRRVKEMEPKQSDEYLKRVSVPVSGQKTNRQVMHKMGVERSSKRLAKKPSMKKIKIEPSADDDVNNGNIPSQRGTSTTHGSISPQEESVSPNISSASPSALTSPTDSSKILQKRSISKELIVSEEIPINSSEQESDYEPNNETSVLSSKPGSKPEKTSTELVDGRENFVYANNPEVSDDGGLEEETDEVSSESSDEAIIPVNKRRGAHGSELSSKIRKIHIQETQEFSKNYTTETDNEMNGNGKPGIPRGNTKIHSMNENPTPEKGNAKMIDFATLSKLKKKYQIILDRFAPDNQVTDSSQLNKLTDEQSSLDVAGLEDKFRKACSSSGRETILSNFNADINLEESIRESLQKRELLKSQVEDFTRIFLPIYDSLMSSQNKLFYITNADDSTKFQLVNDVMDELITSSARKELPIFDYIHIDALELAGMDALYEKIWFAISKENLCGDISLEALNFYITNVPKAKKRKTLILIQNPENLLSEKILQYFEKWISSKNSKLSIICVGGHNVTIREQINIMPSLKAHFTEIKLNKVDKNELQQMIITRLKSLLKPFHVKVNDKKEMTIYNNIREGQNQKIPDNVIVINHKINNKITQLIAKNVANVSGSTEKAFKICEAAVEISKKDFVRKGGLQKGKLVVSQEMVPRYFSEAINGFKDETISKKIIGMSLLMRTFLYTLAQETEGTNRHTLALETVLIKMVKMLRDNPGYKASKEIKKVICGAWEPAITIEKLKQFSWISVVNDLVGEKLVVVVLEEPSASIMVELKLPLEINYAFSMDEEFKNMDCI

Row | Variant | effect of a mutation on the interaction
2 | MNDPREILAVDPYNNITSDEEDEQAIARELEFMERKRQALVERLKRKQEFKKPQDPNFEAIEVPQSPTKNRVKVGSHNATQQGTKFEGSNINEVRLSQLQQQPKPPASTTTYFMEKFQNAKKNEDKQIAKFESMMNARVHTFSTDEKKYVPIITNELESFSNLWVKKRYIPEDDLKRALHEIKILRLGKLFAKIRPPKFQEPEYANWATVGLISHKSDIKFTSSEKPVKFFMFTITDFQHTLDVYIFGKKGVERYYNLRLGDVIAILNLEVLPWRPSGRGNFIKSFNLRISHDFKCILEIGSSRDLGWCPIVNKKTHKKCGSPINISLHKCCDYHREVQFRGTSAKRIELNGGYALGAPTKVDSQPSLYKAKGENGFNIIKGTRKRLSEEEERLKKSSHNFTNSNSAKAFFDEKFQNPDMLANLDNKRRKIIETKKSTALSRELGKIMRRRESSGLEDKSVGERQKMKRTTESALQTGLIQRLGFDPTHGKISQVLKSSVSGSEPKNNLLGKKKTVINDLLHYKKEKVILAPSKNEWFKKRSHREEVWQKHFGSKETKETSDGSASDLEII [P269L] | disrupting interaction strength
3 | MNDPREILAVDPYNNITSDEEDEQAIARELEFMERKRQALVERLKRKQEFKKPQDPNFEAIEVPQSPTKNRVKVGSHNATQQGTKFEGSNINEVRLSQLQQQPKPPASTTTYFMEKFQNAKKNEDKQIAKFESMMNARVHTFSTDEKKYVPIITNELESFSNLWVKKRYIPEDDLKRALHEIKILRLGKLFAKIRPPKFQEPEYANWATVGLISHKSDIKFTSSEKPVKFFMFTITDFQHTLDVYIFGKKGVERYYNLRLGDVIAILNPEVLPWRPSGRGNFIKSFNLRISHDFKCILEIGSSRDLGWCPIVNKKTHKKYGSPINISLHKCCDYHREVQFRGTSAKRIELNGGYALGAPTKVDSQPSLYKAKGENGFNIIKGTRKRLSEEEERLKKSSHNFTNSNSAKAFFDEKFQNPDMLANLDNKRRKIIETKKSTALSRELGKIMRRRESSGLEDKSVGERQKMKRTTESALQTGLIQRLGFDPTHGKISQVLKSSVSGSEPKNNLLGKKKTVINDLLHYKKEKVILAPSKNEWFKKRSHREEVWQKHFGSKETKETSDGSASDLEII [C320Y] | disrupting interaction strength
